Data reported in the nanobody polyreactivity screen of Harvey et al. (2022).

Assay: yeast display, Sf9 membrane polyspecificity reagent, FACS + sequencing; frameworks hold sequencing errors
Procedure, shortened: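 Galactose induction of a Saccharomyces cerevisiae BJ5465 synthetic nanobody display library ran 36–48 hours. The cells were then stained for 1 hour at 4 °C with 10% biotinylated, detergent-solubilized Sf9 membrane reagent, pulled down on streptavidin microbeads and FACS-sorted into low and high (top ~1%) gates on expression and reagent-binding fluorescence. Labels for polyreactivity follow the gate of origin.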

| Sequence | polyreactivity (PSR sort gate) |
| --- | --- |
| QVQLVESGGGIVQAGGSLRLSCAASGRIFANYAKGWYRQAPGKERELVAAISRSGGSTSYADSVKGRFTISRDNAKYTVYLQMNSLKPEETAVSYCAVVSPRQSYYYWGQGTQVTVSS | high polyreactivity |
| QVQLVESGGGIVQAGGSLRLSCAASGRIFDNYVLGWYRQAPGKERELVAAISSGGGTYYADSVKGRFTISRDNAKNTVYLQMNSLKPEDTAVYYCAKRRVYDRSFGRYDYWGQGTQVTVSS | low polyreactivity |
| QVQLVESGGGIVQAGGSLRLSCAASGRIFGYYAMGWYRQARGKERELVAAITWSGGRTYYADSVKGRFTISRDNAKNTVYLQMNSLKPDDTAVYYCAAVVQGPNRKYNYWGQGTQVTVSS | high polyreactivity |
| QVQLVESGGGIVQAGGSLRLSCAASGRIFLRNAMGWYRQAPGYEREFVAAMRYSGGRTYYADSVKGRFTISRDNAKNTVYLQMISLNPEDTAVYYCAAEGSSRSSYRKYDYWGQGSQVTVSS | high polyreactivity |
| QVQLVESGGGIVQAGGSLRLSCAASGRIFRINGMGWYRQAPGKEREFVAAITSGGGTYYADSVKGRFTISRDNAKNTVYLQMNSLKAEDTAVFYCAVRRRYGDDYWGHGTQVTVSS | high polyreactivity |
| QVQLVESGGGIVQAGGSLRLSCAASGRIFRIYAMGWYRQAPGKEWELVASISWGGASTYYADSVKGRFTISRDNAKNPVYLQMNSLKPEDTAVYDCAAVGYQGQYDYRSFGSWGQGTQVTVSS | high polyreactivity |
| QVQLVESGGGIVQAGGSLRLSCAASGRIFSSYAMGWYRQAPGKERELVAAITRGGSTYYADSVKGRFTISRDNANNTVHLQMNSLKPEDPAVYYCAARPPYRYWFWGNEDYWGQGTQVTVSS | high polyreactivity |
| QVQLVESGGGIVQAGGSLRLSCAASGRIFVLYAMGSYRQAPGKERELVADITVSGGRTYYADSVKGRFTISRDNAKYTVYLQMNSLKPEDTAVYYCAASPRSYYWRYYQEDYWGQGTQVTVSS | high polyreactivity |
| QVQLVESGGGIVQAGGSLRLSCAASGRIFWWYAMGMYRQAPGKERELVAVIDDSGGITYYADSVKGRFTISRDNAKNTVYLQMNSLKPEDTAVYYCARNVNAQKVLGGFDSWGQGTQVTVSS | low polyreactivity |
| QVQLVESGGGIVQAGGSLRLSCAASGRIFYINAMGWYRQSPGKERELVAAITGSGGRTYYADSVKGRFTISRDNAKNTVYLHINSLKPEDTAVYYCAAQKKHYSYSYWYDSLGQGTQVTVSS | high polyreactivity |
| QVQLVESGGGIVQAGGSLRLSCAASGRIFYYNAMGWYRQAPGKERELVAAISTRGTSTYYAESVKGRFTISRDNAKNTVYLQMNSLKPEDTAVYYCNRASGNWQSYLSYDYWGQGTQVTVSS | low polyreactivity |
| QVQLVESGGGIVQAGGSLRLSCAASGRLFYYYAMGWDRQAPGTERELVAVISRGVITYYADSVKGRFTISRDTAKNTVYLQMNSLKPEDTAVYYCAVSYPHYIYSYGYWGQGTQVTVSS | high polyreactivity |
| QVQLVESGGGIVQAGGSLRLSCAASGRTFWGYAMGWYRQAPGKERELVASISGRGGSTYYADSVKERFTISRDTAKNTVYLQINSLQPEDTAVYYCAATYFSVKWYYYWGEGTQVTVSS | high polyreactivity |
| QVQLVESGGGIVQAGGSLRLSCAASGRTLGGYAMGWYRQAPGKERELVAAITRRGGSTYYADSVKGRFTISRDNAKNTVYLQMNSLKPEDTAVYYCAARWYARSLTRFNYWGQGTQVTVSS | high polyreactivity |
| QVQLVESGGGIVQAGGSLRLSCAASGRTSVINAMGWYRQAPGKERELVASISRGGSTNYADSVKGRFTISRDNAKNTVYLQMNSLKPEDTAVYYCNADEQNDSFIWSYTIIYDYWGQGTQVTVSS | low polyreactivity |
| QVQLVESGGGIVQAGGSLRLSCAASGSIFADYAMGWYRQAPGKERELVAVISRRGGTTYYADSVKGRFTISRDNAKNSVYLQMNSLKPEDTAVYYCAARRSFNEYDYWGQGTQVTVSS | high polyreactivity |
| QVQLVESGGGIVQAGGSLRLSCAASGSIFQYNAMGWYRQAPGKERELVAAITRGDSTYYADSVKGRFTISRDNAKNTVYLQMNSLKPEDTAVYYCAARPRGKYDYWGQGTQVTVSS | high polyreactivity |
| QVQLVESGGGIVQAGGSLRLSCAASGSIFSYYAMGWYRMAPGKERELVAGITGGGSTDYADSLKGRFTISRDNAKNTVYLQMNSLKPEDTAVYYCAKRYVPWRPYDYWGKGTQVTVSS | low polyreactivity |
| QVQLVESGGGIVQAGGSLRLSCAASGSIFVENAMGWTRQAPGKERELVAAISSDASTNYADSVKGRFTISRDNAKNTVFLQRNSLKPEDTAVYYCAAGYNQHGQYDYWGQGTQVTVSS | low polyreactivity |
| QVQLVESGGGIVQAGGSLRLSCAASGSIFVHNDLGWYRQAPGKERELVARINTGGGTNYADSVKGRFTISRDNAKKTVYLQMNSLKPEDTAVYYCATDGDRDDHYFTDPEFDYWGQGTQVTVSS | low polyreactivity |
| QVQLVESGGGIVQAGGSLRLSCAASGSIFYPYVMGWYRQAPGKERELVAAITTSVGSTYYADSVKGRFTISRDHAKNTVYLQMNSLKPEDTAVYYCAAKYFGSRRPGRYNYWGQGTQVTVSS | high polyreactivity |
| QVQLVESGGGIVQAGGSLRLSCAASGSIFYQYAMGWYRQAPGKERELVAAISRSGGSTYYADSVKGRFTISRDNAKNNVYLQMNSLKPVDTAVYYCAARAVRAAYDYWGQGTQVTVSS | low polyreactivity |

| Sequence | polyreactivity (PSR sort gate) |
| --- | --- |
| QVQLVESGGGIVQAGGSLRLSCAASGSISFLYTMGWYRQAPGKERELVAAITGSTASTYYADSVKGRFTISRDNAKNTVYLQMNSLKPEDTAVYYCAAYWYAEGYWVSRDYWGQGTQVTVSS | low polyreactivity |
| QVQLVESGGGIVQAGGSLRLSCAASGSSFQTNAMGWYRLAPGKERELVATINRSGDSTYYADSVKGRFTISRDNAKNTVYLQMNSLKPEDTAVYYCNKDWHSQDFSAYNSYDYWGQGTQVTVSS | low polyreactivity |
| QVQLVESGGGIVQAGGSLRLSCAASGSSINLYAMGWYRQAPGKERELVAAINDDAGSTYYADSVKGRFTISRDNAKNTVYLQMNSLKPEDTAVYYCNAGSRSTEYDYWGQGTQVTVSS | low polyreactivity |
| QVQLVESGGGIVQAGGSLRLSCAASGSTFATYTMGWYRQAPGKERELVAAISSRGGSTYYADSVKGRFTISRDNAKNTVYLQMNSLKPEDTAVYYCNARRSTDPARYYWGQGSQVTVSS | high polyreactivity |
| QVQLVESGGGIVQAGGSLRLSCAASGSTFESNAMGSYRQAPGKERELVAAISRGGNTYYADSVKGRFTISRDNAKNTVYLQMNSLKPEDTAVYYCNVDRGNPVQPSEYWGQGTQVTVSS | low polyreactivity |
| QVQLVESGGGIVQAGGSLRLSCAASGSTFFIYAMGWYRQAPGKERELVAAISGSGGTTYYADSVKGRFTISRDNAKNTVYLQMNSLKPEDTAVYYCAARTFSAFWRGGYDYWGQGTQVTVSS | low polyreactivity |
| QVQLVESGGGIVQAGGSLRLSCAASGSTFGYYAMGWYRQAPGKERELVAAISWRGGSTYYADSVKGRFTISRDNAKNTVYLQMNSLKPEDTAVYYCAAQRGGPFPRVVDLYDYWGQGTQVTVSS | low polyreactivity |
| QVQLVESGGGIVQAGGSLRLSCAASGSTFLYYAMGWYRQAPGKERELVAAISSGGSTYYADSVKGRFTISRDNAKNTVYLQMNSLKPEDTAVYYCAAVRPGYVAYYYWGQGTQVTVSS | high polyreactivity |
| QVQLVESGGGIVQAGGSLRLSCAASGSTFNWNAMGWYRQAPGKEREFVAAISKSGGTTYYADSVKGRFTISRDNAKNTVYLQMNSLKPEDTAVYYCAAVRRYHSYPDGGYWGQGTQVTVSS | high polyreactivity |
| QVQLVESGGGIVQAGGSLRLSCAASGSTFVSNAMGWYRQAPGKERELVAAITTGGSTYYADSVKGRFTISRDNAKNTVYLQMNSLKPEDTAVYYCAADSVLNWFWGQGTQVTVSS | low polyreactivity |
| QVQLVESGGGIVQAGGSLRLSCAASGSTFVVYAMVWYRQEPGKERELVAAITSGGSTYYADSVKGRFTISRDNAKNTVFLQMNSLKPDDSAVYYCNKDDFSNELYWGQGTDVTVSS | low polyreactivity |
| QVQLVESGGGIVQAGGSLRLSCAASGSTLDYHDMGWYRQAPGKEREFVAAIRSNDGSTYYADSVKGRFTISLDNAKNTVYLQMNSLKPEDTAVYYCNKDVWDGYDWPEFDYWGQGTQVTVSS | low polyreactivity |
| QVQLVESGGGIVQAGGSLRLSCAASGSTSSSDDMGWYRQAPGQERELVADITSGGRTYYADSVKGRFTISRDNAKNTVYLQMNSLKPEATAVYYCAADTIEHYSLVTPTQGKFDSWGQGTQVTVSS | low polyreactivity |
| QVQLVESGGGIVQAGGSLRLSCAASGYTISYYAMGCYRQAPGKERELVASISWRGGGTYYADSVKGRFTISRDNAKNTVYLQMNSLKAEDTAVYYCNIDYYATPYGYWGQGTQVTVSS | low polyreactivity |
| QVQLVESGGGIVQAGGSLRLSCAATGFTFVYYAMGWYRQEPGKERELVAAISSRGGSTNYADSVKGRFTISRDNAKKTVYLQMNSLKPEDTAVYYCAARANTKKPYYYWGQGTQVTVSS | high polyreactivity |
| QVQLVESGGGIVQAGGSLRLSCADSGFISVTYAMGWYRPAPGKERELDAAITYSGGSTYYADSVKGRYTISRDNAKNTVYLQMNSLKPEDTAVYYCAKKRRVVVLSVQGDYWGQGTQVTVSS | low polyreactivity |
| QVQLVESGGGIVQAGGSLRLSCPASGIIFYLNPMGWSRQAPGKERELVAAITRGGSTYYADSVKGRFTISRDNEKNTVYLQMNSLKPEDTAVYYWAAKHGPGYRRWYDYWGQGTQVTVSS | high polyreactivity |
| QVQLVESGGGIVQAGGSLRLSFAASGSTFNSNVMGWYRQAPGKERELVAAISRSGGNTYYADSVKGRFTISRDNAKNTVYLLMNSLKPEDTAVYYCNKAGRYPYDYWGQGTQVTVSS | high polyreactivity |
| QVQLVESGGGIVQAGGSLRLSSAASGRIFYRYAMGWYRQAPGKERELVASITRSGITHYADSVNGRFTISRDNAKNTVYLQMNSLKPEDTAVYYCNKRPWHRSSRPFYYWGQGTQVTVSS | high polyreactivity |
| QVQLVESGGGIVQAGGSLRLTCAASGRILGSNSIAWYRHAPGKERELVAAITSTGSTDYADSVKGRFTISRDNAKKTVYLQMNSLKPEDTAVYYCAADTSPYQDDYWGQGTQVTVSS | low polyreactivity |
| QVQLVESGGGIVQAGGSLSLSCAASGFNFGIYAMGWYRQAPGKEREFVAAITGSAGSTYYADSVKGRFTISLDNAKNTVYLQMNSLKPEDTAVYYCAAVLRTHRYGGYNYWGQGTQVTVSS | low polyreactivity |
